Experimental findings from patent publication US20220278152, “SPECTRALLY FILTERED PHOTODIODE PAIR” (UNIVERSITY OF MASSACHUSETTS, published 2022) are described below.

One data set deals with Interferon gamma (IFN-γ) (Homo sapiens, UniProt P01579 P01579:24-166). As to the kind of experiment: FRET ratiometric photodiode aptasensor; aptamer on AF555-streptavidin/biotin-BSA surface; signal change 0.1-10 pM, LOD 1 pM, saturated at 100 pM-1 nM; 1x PBS; reversible by 55 C water wash. The following applies: tags: R&D Systems, recombinant human IFN-γ; chain copies: 2; label: Cy5 (5'), biotin (3'); hairpin (self-hybridizes without IFN-γ). The text has this:
To package the PD array for ratiometric aptasensing experiments, a 50 μm tall PDMS microfluidic channel with one inlet and one outlet hole was fabricated via a standard SU-8 photolithography process, and then bonded the microfluidic channel over the PD array via O₂ plasma. Tubing was inserted into the inlet and outlet holes to allow for injection and removal of analytes. To achieve ratiometric aptasensing […], the surface of the array was functionalized by sequentially introducing BSA, AF555 conjugated streptavidin, and biotinylated Cy5 labeled IFN-γ DNA aptamers. After each analyte's respective incubation period, the extra unbonded analyte was removed by washing with 9 mL deionized water.
Following this surface functionalization procedure, two aptasensing experiments were conducted where, in each experiment, the device was kept in 1×PBS and sequentially introduced 0.1 pM-1 nM analyte in 15-minute intervals followed by a water washing step and reintroduced analytes and water washing as 2nd round via the microfluidic channel (FID. 10a-c). During introducing each concentration, an upright fluorescence microscope was used to illuminate the PD array with pulses of 550/15 nm excitation light (Ilight=100%, 260 mW) which have tₒₙ/toff=18/162 s (i.e., 3 min period) to alleviate the photobleaching effect. […]

Another data set addresses Streptavidin (UniProt P22629 P22629:25-183). As to the kind of experiment: specificity control; 0.1 pM-1 nM free streptavidin, <5% signal change, 1x PBS; biotinylated aptamer already immobilised on surface streptavidin. The following applies: tags: Sigma Aldrich; chain copies: 4; label: Cy5 (5'), biotin (3'); hairpin (self-hybridizes without IFN-γ). On the procedure: After each analyte's respective incubation period, the extra unbonded analyte was removed by washing with 9 mL deionized water.
Following this surface functionalization procedure, two aptasensing experiments were conducted where, in each experiment, the device was kept in 1×PBS and sequentially introduced 0.1 pM-1 nM analyte in 15-minute intervals followed by a water washing step and reintroduced analytes and water washing as 2nd round via the microfluidic channel (FID. 10a-c). During introducing each concentration, an upright fluorescence microscope was used to illuminate the PD array with pulses of 550/15 nm excitation light (Ilight=100%, 260 mW) which have tₒₙ/toff=18/162 s (i.e., 3 min period) to alleviate the photobleaching effect.
For the first experiment, streptavidin was sequentially introduced as a control to evaluate the specificity of the array. […] For the second experiment, IFN-γ was sequentially introduced to evaluate the sensibility of the array. […] Due to this conformation change, less AF555 emission light will excite the Cy5 molecules, leading to the observed increase [decrease] in AF555 [Cy5] pixel signals.

Sequence of Interferon gamma (IFN-γ) (P01579 24-166, one chain of several): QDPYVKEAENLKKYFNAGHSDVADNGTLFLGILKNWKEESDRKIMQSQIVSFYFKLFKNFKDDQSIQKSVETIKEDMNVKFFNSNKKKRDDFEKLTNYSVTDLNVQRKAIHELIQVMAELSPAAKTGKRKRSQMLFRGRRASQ
Sequence of Streptavidin (P22629 25-183, one chain of several): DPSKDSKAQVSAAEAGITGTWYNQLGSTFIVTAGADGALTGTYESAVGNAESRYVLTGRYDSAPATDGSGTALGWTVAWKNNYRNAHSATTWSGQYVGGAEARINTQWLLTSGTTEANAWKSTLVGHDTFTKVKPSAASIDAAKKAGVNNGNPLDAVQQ

In the case of GGGGTTGGTTGTGTTGGGTGTTGTGTCCAACCCCTTT (ssDNA, 5' Cy5, 3' biotin [1 (5' Cy5), 37 (3' biotin)]) [IFN-γ DNA aptamer], the binding result was “binds” with Interferon gamma (IFN-γ) and “no binding” with Streptavidin.
